This note sets out measurements from PMC3689434 (Biochemistry, 2013).

Where two headings read alike, the source gives them in different places.

Series [1] concerns the molecule itself. The series can be described thus: zonal velocity sedimentation in a glycerol gradient.
Series [2] concerns the molecule itself. Described as above. The source holds these as a separate data set.

B1: full-length Mycobacterium smegmatis polynucleotide phosphorylase (PNPase) (enzyme, UniProt A0QVQ5 1-763, looked up)
chain: MSVVELEDGVYESTAVIDNGSFGTRTIRFETGRLAQQAAGSAVAYLDDETMLLSATTASKNPKDHFDFFPLTVDVEERMYAAGRIPGSFFRREGRPSTDAILTCRLIDRPLRPSFVDGLRNEIQVVVTVMSLDPKDLYDVLAINAASMSTQLAGLPFSGPVGGARIALIDGTWVAFPTVEQLERAVFDMVVAGRIVGDGDSADVAIMMVEAEATENVVELVAGGAQAPTEAVVAEGLEAAKPFIKALCAAQQELADRAAKPAGEYPVFPDYEADVYDAVASVATEALAEALTIAGKTERNDRTDEIKVEVLERLAEPYAGREKEIGAAFRSLTKKLVRQRILTDHFRIDGRGITDIRALSAEVAVIPRAHGSALFERGETQILGVTTLDMIKMAQQIDSLGPENTKRYMHHYNFPPYSTGETGRVGSPKRREIGHGALAERALVPVLPSIEEFPYAIRQVSEALGSNGSTSMGSVCASTLALLNAGVPLKAPVAGIAMGLVSDDVDVDGKVEKRYVALTDILGAEDAFGDMDFKVAGTKDFVTALQLDTKLDGIPSQVLAGALSQAKDARLTILDVMAEAIDRPDEMSPYAPRITTIKVPVDKIGEVIGPKGKMINSITEETGAQISIEDDGTVFVGAADGLSAQAAIDKINAIANPQLPKVGERFLGTVVKTTDFGAFVSLLPGRDGLVHISKLGKGKRIAKVEDVVKVGDKLRVEIADIDNRGKISLVLVAEESAESAESAGDKGAEKAEGAAADVTPAEA
For B1, the “stoichiometry N” value in series [1] came out at 3.

B2: M. smegmatis PNPase-(1-656) lacking the S1 domain (domain or fragment, Mycobacterium smegmatis, UniProt A0QVQ5 1-656, looked up)
chain: MSVVELEDGVYESTAVIDNGSFGTRTIRFETGRLAQQAAGSAVAYLDDETMLLSATTASKNPKDHFDFFPLTVDVEERMYAAGRIPGSFFRREGRPSTDAILTCRLIDRPLRPSFVDGLRNEIQVVVTVMSLDPKDLYDVLAINAASMSTQLAGLPFSGPVGGARIALIDGTWVAFPTVEQLERAVFDMVVAGRIVGDGDSADVAIMMVEAEATENVVELVAGGAQAPTEAVVAEGLEAAKPFIKALCAAQQELADRAAKPAGEYPVFPDYEADVYDAVASVATEALAEALTIAGKTERNDRTDEIKVEVLERLAEPYAGREKEIGAAFRSLTKKLVRQRILTDHFRIDGRGITDIRALSAEVAVIPRAHGSALFERGETQILGVTTLDMIKMAQQIDSLGPENTKRYMHHYNFPPYSTGETGRVGSPKRREIGHGALAERALVPVLPSIEEFPYAIRQVSEALGSNGSTSMGSVCASTLALLNAGVPLKAPVAGIAMGLVSDDVDVDGKVEKRYVALTDILGAEDAFGDMDFKVAGTKDFVTALQLDTKLDGIPSQVLAGALSQAKDARLTILDVMAEAIDRPDEMSPYAPRITTIKVPVDKIGEVIGPKGKMINSITEETGAQISIEDDGTVFVGAADGLSAQAAIDKINAIAN
Consider B2, for which, in series [2], the “stoichiometry N” value lay within 1 to 3.

B3: M. smegmatis PNPase-(1-591) lacking the KH and S1 domains (domain or fragment, Mycobacterium smegmatis, UniProt A0QVQ5 1-591, looked up)
chain: MSVVELEDGVYESTAVIDNGSFGTRTIRFETGRLAQQAAGSAVAYLDDETMLLSATTASKNPKDHFDFFPLTVDVEERMYAAGRIPGSFFRREGRPSTDAILTCRLIDRPLRPSFVDGLRNEIQVVVTVMSLDPKDLYDVLAINAASMSTQLAGLPFSGPVGGARIALIDGTWVAFPTVEQLERAVFDMVVAGRIVGDGDSADVAIMMVEAEATENVVELVAGGAQAPTEAVVAEGLEAAKPFIKALCAAQQELADRAAKPAGEYPVFPDYEADVYDAVASVATEALAEALTIAGKTERNDRTDEIKVEVLERLAEPYAGREKEIGAAFRSLTKKLVRQRILTDHFRIDGRGITDIRALSAEVAVIPRAHGSALFERGETQILGVTTLDMIKMAQQIDSLGPENTKRYMHHYNFPPYSTGETGRVGSPKRREIGHGALAERALVPVLPSIEEFPYAIRQVSEALGSNGSTSMGSVCASTLALLNAGVPLKAPVAGIAMGLVSDDVDVDGKVEKRYVALTDILGAEDAFGDMDFKVAGTKDFVTALQLDTKLDGIPSQVLAGALSQAKDARLTILDVMAEAIDRPDEMSPYA
Turning to B3, in series [2], the binding result was “binds”.
